From the supplement of paper PMC10065799, “High-throughput profiling of sequence recognition by tyrosine kinases and SH2 domains using bacterial peptide display” (eLife, 2023)

Assays:
Hck = Hck (UniProt P08631); test: phosphorylation enrichment, bacterial display (enrichment ratio); higher = better substrate or ligand; peptides without Tyr show the background
Fyn = Fyn (UniProt P06241); test: as above
Fes = Fes (UniProt P07332); test: as above
AncSZ = test: as above
c-Src = test: as above
Fer (mouse) = test: as above
FGFR3 = FGFR3 (UniProt P22607); test: as above
EPHB2 = EPHB2 (UniProt P29323); test: as above
EPHB2, sequence (P29323 whole entry, looked up): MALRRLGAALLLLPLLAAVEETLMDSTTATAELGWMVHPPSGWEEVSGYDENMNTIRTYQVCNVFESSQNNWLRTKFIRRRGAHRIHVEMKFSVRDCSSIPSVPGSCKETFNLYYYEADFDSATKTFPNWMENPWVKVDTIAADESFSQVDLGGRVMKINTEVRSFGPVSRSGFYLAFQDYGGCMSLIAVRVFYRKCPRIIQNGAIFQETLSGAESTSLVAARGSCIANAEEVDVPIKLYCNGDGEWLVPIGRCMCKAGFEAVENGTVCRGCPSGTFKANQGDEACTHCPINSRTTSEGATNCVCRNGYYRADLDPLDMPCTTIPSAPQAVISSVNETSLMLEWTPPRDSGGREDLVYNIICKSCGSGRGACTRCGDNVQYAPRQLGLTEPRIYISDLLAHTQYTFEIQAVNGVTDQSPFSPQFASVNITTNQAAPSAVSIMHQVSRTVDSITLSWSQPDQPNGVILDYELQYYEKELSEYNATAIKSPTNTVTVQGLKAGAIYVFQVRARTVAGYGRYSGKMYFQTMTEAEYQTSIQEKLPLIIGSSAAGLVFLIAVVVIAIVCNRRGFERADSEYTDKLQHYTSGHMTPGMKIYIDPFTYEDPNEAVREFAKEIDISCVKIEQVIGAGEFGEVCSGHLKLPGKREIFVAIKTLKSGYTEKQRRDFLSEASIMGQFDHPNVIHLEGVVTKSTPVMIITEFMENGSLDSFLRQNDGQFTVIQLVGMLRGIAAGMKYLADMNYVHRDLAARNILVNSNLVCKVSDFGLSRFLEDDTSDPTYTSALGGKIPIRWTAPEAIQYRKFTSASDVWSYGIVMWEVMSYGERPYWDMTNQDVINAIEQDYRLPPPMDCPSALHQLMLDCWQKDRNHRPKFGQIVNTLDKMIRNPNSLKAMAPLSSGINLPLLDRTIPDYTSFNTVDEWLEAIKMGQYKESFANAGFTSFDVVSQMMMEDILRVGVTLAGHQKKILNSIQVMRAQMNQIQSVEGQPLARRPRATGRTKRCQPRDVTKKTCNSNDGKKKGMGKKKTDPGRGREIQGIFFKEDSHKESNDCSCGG

FGFR1 = FGFR1 (UniProt P11362); test: as above
FGFR1, sequence (P11362 whole entry, looked up): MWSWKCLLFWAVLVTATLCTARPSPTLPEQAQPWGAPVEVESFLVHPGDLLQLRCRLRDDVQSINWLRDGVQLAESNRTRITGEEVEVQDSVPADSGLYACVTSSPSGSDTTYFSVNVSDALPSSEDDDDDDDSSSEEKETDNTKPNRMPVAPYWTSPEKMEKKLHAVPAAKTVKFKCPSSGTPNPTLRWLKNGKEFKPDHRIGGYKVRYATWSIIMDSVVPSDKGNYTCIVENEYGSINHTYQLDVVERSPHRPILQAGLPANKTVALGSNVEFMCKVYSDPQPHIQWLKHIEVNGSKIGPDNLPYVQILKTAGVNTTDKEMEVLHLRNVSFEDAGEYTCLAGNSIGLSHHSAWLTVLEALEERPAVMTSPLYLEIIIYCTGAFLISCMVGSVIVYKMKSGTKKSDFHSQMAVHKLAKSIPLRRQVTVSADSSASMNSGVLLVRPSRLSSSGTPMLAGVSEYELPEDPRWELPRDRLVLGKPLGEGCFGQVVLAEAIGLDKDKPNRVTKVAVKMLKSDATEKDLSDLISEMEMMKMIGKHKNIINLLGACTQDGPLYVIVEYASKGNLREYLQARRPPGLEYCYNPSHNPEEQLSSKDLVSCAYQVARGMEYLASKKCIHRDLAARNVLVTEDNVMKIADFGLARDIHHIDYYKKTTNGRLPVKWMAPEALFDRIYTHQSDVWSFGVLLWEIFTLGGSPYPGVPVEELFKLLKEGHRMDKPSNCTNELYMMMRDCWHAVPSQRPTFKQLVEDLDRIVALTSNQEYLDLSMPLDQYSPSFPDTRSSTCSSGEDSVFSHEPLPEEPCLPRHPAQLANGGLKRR

EPHB1 = EPHB1 (UniProt P54762); test: as above
EPHB1, sequence (P54762 whole entry, looked up): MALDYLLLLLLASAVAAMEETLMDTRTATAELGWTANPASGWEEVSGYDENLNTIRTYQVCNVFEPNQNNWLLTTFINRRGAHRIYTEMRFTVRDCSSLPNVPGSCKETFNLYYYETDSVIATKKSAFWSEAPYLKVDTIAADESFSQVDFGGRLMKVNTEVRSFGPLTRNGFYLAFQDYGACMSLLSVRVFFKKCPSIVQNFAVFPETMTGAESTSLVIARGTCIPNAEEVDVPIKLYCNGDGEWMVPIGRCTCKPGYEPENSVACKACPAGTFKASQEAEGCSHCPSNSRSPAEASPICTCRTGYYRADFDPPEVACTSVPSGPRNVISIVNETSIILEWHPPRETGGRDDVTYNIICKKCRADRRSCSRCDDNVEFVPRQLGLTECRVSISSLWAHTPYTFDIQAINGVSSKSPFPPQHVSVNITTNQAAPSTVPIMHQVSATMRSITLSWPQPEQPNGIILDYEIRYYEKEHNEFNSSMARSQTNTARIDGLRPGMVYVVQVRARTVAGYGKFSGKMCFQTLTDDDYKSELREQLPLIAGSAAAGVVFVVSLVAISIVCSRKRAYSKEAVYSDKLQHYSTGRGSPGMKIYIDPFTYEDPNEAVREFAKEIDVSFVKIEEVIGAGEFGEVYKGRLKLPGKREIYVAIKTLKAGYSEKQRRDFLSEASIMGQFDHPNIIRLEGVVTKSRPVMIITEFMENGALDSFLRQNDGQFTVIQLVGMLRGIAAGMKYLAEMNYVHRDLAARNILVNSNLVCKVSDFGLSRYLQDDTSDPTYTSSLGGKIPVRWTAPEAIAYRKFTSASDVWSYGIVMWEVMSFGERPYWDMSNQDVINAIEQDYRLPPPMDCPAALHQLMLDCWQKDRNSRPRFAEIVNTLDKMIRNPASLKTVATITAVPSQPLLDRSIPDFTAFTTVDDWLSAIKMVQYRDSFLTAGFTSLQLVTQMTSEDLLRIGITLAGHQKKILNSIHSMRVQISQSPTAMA

MERTK = MERTK (UniProt Q12866); test: as above
MERTK, sequence (Q12866 whole entry, looked up): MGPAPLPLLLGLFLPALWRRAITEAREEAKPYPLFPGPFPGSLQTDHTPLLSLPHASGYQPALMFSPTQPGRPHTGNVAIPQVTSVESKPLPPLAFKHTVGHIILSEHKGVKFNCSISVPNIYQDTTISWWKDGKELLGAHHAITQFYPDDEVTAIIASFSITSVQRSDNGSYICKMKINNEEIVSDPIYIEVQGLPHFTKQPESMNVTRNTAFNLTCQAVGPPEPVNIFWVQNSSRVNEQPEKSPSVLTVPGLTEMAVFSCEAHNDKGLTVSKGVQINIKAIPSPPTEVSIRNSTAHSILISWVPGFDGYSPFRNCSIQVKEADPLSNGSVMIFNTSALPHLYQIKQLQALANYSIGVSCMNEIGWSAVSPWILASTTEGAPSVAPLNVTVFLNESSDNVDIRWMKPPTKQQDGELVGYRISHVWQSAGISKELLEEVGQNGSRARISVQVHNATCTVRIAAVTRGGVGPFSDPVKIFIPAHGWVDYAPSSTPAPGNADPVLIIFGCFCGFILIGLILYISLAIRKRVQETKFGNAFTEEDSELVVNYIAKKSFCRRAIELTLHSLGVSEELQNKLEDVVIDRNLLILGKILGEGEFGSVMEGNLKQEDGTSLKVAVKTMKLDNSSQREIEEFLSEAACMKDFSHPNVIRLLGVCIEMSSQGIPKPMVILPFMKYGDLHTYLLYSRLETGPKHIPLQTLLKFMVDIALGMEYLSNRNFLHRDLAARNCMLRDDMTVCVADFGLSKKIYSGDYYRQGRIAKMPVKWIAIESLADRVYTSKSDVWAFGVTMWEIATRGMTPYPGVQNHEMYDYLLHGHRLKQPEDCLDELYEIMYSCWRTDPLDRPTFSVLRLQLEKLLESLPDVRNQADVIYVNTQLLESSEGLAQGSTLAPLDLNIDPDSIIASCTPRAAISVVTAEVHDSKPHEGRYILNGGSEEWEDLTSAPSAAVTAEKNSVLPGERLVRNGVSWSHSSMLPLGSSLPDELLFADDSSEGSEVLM

Jak2 = Jak2 (UniProt O60674); test: as above
c-Abl (mouse) = test: as above
Grb2 SH2 = Grb2 SH2 (UniProt P62993); test: SH2 binding enrichment of the phosphorylated peptide, bacterial display (enrichment ratio); higher = better substrate or ligand; peptides without Tyr show the background
c-Src SH2 = test: as above
SHP2-C SH2 = test: as above
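Throughout, for SH2 binding enrichment of the phosphorylated peptide, bacterial display: peptide library displayed on the E. coli surface as eCPX fusions, selected cells deep-sequenced, score is each peptide's frequency after selection divided by its frequency in the input.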
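Throughout, for phosphorylation enrichment, bacterial display: 11-residue human phosphosite peptides and single-mutation variants displayed on the E. coli surface, counted by deep sequencing, each peptide's frequency after selection divided by its frequency in the unselected input library; frequency after pTyr selection over input frequency; kinase dosed for 20-30% of maximal phosphorylation in three min.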

Fyn, sequence (P06241 whole entry, looked up): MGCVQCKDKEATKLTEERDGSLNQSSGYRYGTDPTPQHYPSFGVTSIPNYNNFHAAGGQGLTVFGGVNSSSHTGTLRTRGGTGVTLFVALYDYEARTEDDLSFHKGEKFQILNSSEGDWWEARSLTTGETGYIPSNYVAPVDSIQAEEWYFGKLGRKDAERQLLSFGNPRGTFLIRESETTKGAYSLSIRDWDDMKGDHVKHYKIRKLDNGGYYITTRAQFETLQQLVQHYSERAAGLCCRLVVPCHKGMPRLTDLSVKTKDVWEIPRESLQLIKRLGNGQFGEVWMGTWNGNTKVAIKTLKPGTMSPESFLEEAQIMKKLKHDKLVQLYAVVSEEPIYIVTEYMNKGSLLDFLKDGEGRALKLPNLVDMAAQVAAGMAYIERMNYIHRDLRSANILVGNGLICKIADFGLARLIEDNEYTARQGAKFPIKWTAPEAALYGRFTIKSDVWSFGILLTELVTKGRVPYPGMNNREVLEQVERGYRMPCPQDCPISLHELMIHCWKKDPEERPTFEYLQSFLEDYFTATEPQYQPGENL
Hck, sequence (P08631 whole entry, looked up): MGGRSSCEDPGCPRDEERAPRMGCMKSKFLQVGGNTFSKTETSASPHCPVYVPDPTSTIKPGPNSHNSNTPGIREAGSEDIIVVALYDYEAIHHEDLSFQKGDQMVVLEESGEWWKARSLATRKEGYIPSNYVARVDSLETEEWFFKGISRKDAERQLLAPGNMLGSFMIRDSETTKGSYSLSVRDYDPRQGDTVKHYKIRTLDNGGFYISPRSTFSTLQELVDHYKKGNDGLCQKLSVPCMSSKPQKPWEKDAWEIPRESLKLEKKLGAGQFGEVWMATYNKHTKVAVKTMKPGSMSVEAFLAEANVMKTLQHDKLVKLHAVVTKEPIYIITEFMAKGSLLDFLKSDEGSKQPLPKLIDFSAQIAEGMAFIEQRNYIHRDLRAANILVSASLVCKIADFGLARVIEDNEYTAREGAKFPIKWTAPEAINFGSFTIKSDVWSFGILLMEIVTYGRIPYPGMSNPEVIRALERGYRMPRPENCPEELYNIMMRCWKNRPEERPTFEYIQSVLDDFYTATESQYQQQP

Sequence	phosphorylation enrichment (Hck)	phosphorylation enrichment (Fyn)	phosphorylation enrichment (Fes)	phosphorylation enrichment (AncSZ)	phosphorylation enrichment (c-Src)	phosphorylation enrichment (Fer (mouse))	phosphorylation enrichment (FGFR3)	phosphorylation enrichment (EPHB2)	phosphorylation enrichment (FGFR1)	phosphorylation enrichment (EPHB1)	phosphorylation enrichment (MERTK)	phosphorylation enrichment (Jak2)	phosphorylation enrichment (c-Abl (mouse))	SH2 binding enrichment (Grb2 SH2)	SH2 binding enrichment (c-Src SH2)	SH2 binding enrichment (SHP2-C SH2)
LNPDGYKKAFE [CPXM2_Y427_E428K_YF]	0.54	0.495	2.1	1.02	0.827	0.67	0.833	0.793	0.866	0.727	0.727	1.68	1.28	0.945	0.488	0.578
SQQTFYPVSNM [ABCD1_Y181_R182P_YF]	0.407	0.419	0.654	0.706	0.398	0.318	0.513	0.49	0.507	0.387	0.374	0.598	0.57	0.881	0.466	0.644
GLGGVYGGASG [KRT8_Y54_G53V]	0.669	0.566	0.661	0.514	0.702	0.418	0.52	0.355	0.448	0.445	0.445	0.587	0.577	0.705	0.385	0.709
RHPLDYLRQYP [NARS2_Y138_E137D]	0.753	0.547	1.15	0.914	0.411	0.594	0.694	0.96	0.405	0.799	0.509	1.01	0.627	1.36	0.894	1.71
QEGPEYWDRNT [HLA-B_Y83]	0.685	0.763	1.29	1.36	0.485	0.557	0.913	0.741	1.03	0.9	0.49	0.806	0.757	0.856	0.377	0.711
VNYQPYRKHKY [TEX37_Y28_D24N]	0.451	0.352	0.498	0.578	0.537	0.41	0.501	0.444	0.419	0.367	0.351	0.409	0.688	0.777	0.568	0.771
KGRAGYTTVAV [RET_Y752]	0.337	0.319	0.519	0.46	0.347	0.325	0.412	0.265	0.309	0.286	0.415	0.437	0.454	1.47	1.47	1.64
YVKEPYIQSRF [HIPK4_Y175]	0.416	0.469	0.77	0.628	0.329	0.411	0.528	0.465	0.491	0.406	0.53	0.507	0.457	1.11	0.769	0.721
GITVTYTIPKK [UBA5_Y372_A371T]	0.54	0.413	0.96	0.933	0.4	0.497	0.563	0.557	0.522	0.537	1.49	0.994	2.12	0.862	1.26	3.64
RELGEYALAEF [ALDH1A3_Y492_YF]	0.661	0.77	1.06	1.28	0.665	0.699	0.784	0.697	0.725	0.857	0.478	0.821	0.849	0.684	0.93	0.411
CPPELYALMSD [ZAP70_Y569]	1.08	0.612	1.31	1.57	0.828	1.19	1	1.13	0.905	3.39	3.54	0.892	0.681	2.08	1.06	0.784
YGPPQYNIQYS [ERBB2IP_Y977]	0.72	0.549	0.802	0.989	0.617	0.672	0.557	0.592	0.462	0.412	0.602	0.655	0.858	0.728	0.322	0.986
PTKNDYWAMLA [WWOX_Y287]	0.705	0.695	1.5	1.64	0.912	0.447	4.3	1.61	7.82	1.78	0.443	1.12	0.939	1.07	0.721	0.617
TSNQEYLYLSM [FGFR1_Y766_D768Y]	2.67	2.08	1.31	2.64	2.88	0.845	8.18	1.83	12.5	2.28	5.28	3.5	0.975	0.812	0.447	0.553
AKAFIYASHIV [ZNF573_Y229_G224A]	0.842	1	1.08	0.962	1.53	1.57	0.965	0.771	0.561	0.7	0.501	0.908	1.44	0.82	0.637	0.724
AARVSYRLASG [DCHS1_Y1582]	0.378	0.315	0.588	0.554	0.382	0.51	0.392	0.49	0.354	0.352	0.422	0.428	0.423	0.842	0.409	0.759
ENKGVYVLMSG [IVD_Y277]	0.518	0.561	1.26	1.2	0.788	0.599	1.79	0.626	2.5	0.727	1.13	1.23	0.739	0.987	3.06	0.892

Sequence	phosphorylation enrichment (Hck)	phosphorylation enrichment (Fyn)	phosphorylation enrichment (Fes)	phosphorylation enrichment (AncSZ)	phosphorylation enrichment (c-Src)	phosphorylation enrichment (Fer (mouse))	phosphorylation enrichment (FGFR3)	phosphorylation enrichment (EPHB2)	phosphorylation enrichment (FGFR1)	phosphorylation enrichment (EPHB1)	phosphorylation enrichment (MERTK)	phosphorylation enrichment (Jak2)	phosphorylation enrichment (c-Abl (mouse))	SH2 binding enrichment (Grb2 SH2)	SH2 binding enrichment (c-Src SH2)	SH2 binding enrichment (SHP2-C SH2)
LKEIRYPPFTD [ALDH3B2_Y362_H361R_YF]	0.63	0.926	2.01	2.71	0.919	1.09	1.07	0.731	1.09	0.883	0.725	2.05	1.06	0.798	0.605	0.68
KVKPIYFHTQG [AR_Y916]	0.385	0.371	0.708	0.645	0.522	0.28	0.507	0.422	0.468	0.358	0.356	0.53	0.578	1.59	1.37	1.82
FGSLLYKFAFK [FANCD2_Y458_YF]	0.37	0.306	1.09	0.91	0.453	0.336	0.678	0.445	0.527	0.464	0.4	0.964	0.726	0.983	0.449	0.732
RKETFYILSCR [GUCY2C_Y681_T682I]	0.355	0.373	1.59	1.44	0.448	0.665	0.917	0.474	0.553	0.546	0.525	0.953	1.1	1.15	0.519	0.663
VPLLEYFRDIF [CDAN1_Y712_YF]	0.566	0.543	1.6	1.42	0.52	0.584	0.943	0.715	0.687	0.523	0.56	1.41	1.06	1.44	1.13	1.38
MKGEFYRFLAE [YWHAG_Y131_D129E_YF]	0.414	0.392	0.902	0.77	0.382	0.4	0.529	0.455	0.336	0.426	0.372	0.907	0.627	0.712	0.351	0.464
VSAPEYGPKLK [TBC1D14_Y46_L41V]	0.465	0.437	0.678	0.644	0.369	0.452	0.504	0.391	0.476	0.452	0.394	0.556	0.469	0.876	0.497	0.667
MKVPLYETPAG [PGM5_Y358_V357L]	6.03	1.82	1.06	1.64	1.81	16.7	0.632	27.8	0.52	19.4	9.79	0.767	11.2	1.01	1.08	1.69
LNPFIYSLRNR [OR1A1_Y288]	1.28	0.657	1.55	1.46	2.23	0.6	0.579	0.618	0.891	0.437	0.493	1.43	0.974	0.873	0.486	1.55
EEKKKYYDAKI [CASP5_Y103_T106A]	0.411	0.371	0.764	0.626	0.396	0.447	0.518	0.432	0.529	0.467	0.429	0.848	0.565	1.28	0.521	1.02
DAVKHYMQFRK [CNGA2_Y395]	0.555	0.591	0.558	0.46	0.441	0.366	0.427	0.363	0.344	0.359	0.397	0.44	0.54	0.847	0.461	0.722
KFVVVYFREID [IL17RB_Y447_YF]	0.538	0.436	1.27	1.2	0.408	0.446	0.691	0.523	0.49	0.508	0.362	1.17	0.724	1.96	1.43	2.08
FVKEPYIQSRF [HIPK4_Y175_YF]	0.402	0.374	0.702	0.569	0.418	0.43	0.479	0.452	0.375	0.402	0.39	0.607	0.447	0.942	0.509	0.785
ELTTCYRKKCC [CCBE1_Y70]	0.396	0.444	0.785	0.817	0.379	0.393	0.507	0.48	0.485	0.441	0.413	0.652	0.559	1.02	0.741	0.873
PTYENYANSTQ [SLC12A3_Y70_H69N]	2.12	4.03	0.743	1.06	5.43	0.69	0.555	3.36	0.593	4.39	0.927	0.518	0.418	19.9	2.96	0.728
LVMFIYAISGM [SCN1A_Y1684_F1687S]	0.727	0.442	1.99	1.2	0.85	0.813	1.01	0.927	0.48	0.931	0.725	1.17	1.17	0.792	0.569	1.4
